Positions count from the first letter of the chain named. In names and notes the source's numbering stands.
Experiments:
Type in all cases: cell-based, human
[1] = test system: wild-type and variant SNAP-GIPR; assay: Surface SNAP-GIPR expression (SNAP-tag labelling) in INS-1 cells; settings: Fig 4G; Mean
In short: (§1)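 Read-out: whole-cell fluorescence of surface-only SNAP label (Alexa Fluor 647, 500 nM, 10 min, RT), wide-field 20X, several FOVs per well. Flat-field corrected, phase-contrast masked, nontransfected-well signal subtracted; normalized to experiment mean or wild-type.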

[2] = test system: wild-type and variant SNAP-GIPR; assay: Single-concentration GIP cAMP response by HTRF in AD293 cells; settings: Fig S3F, HTRF, mean;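 also: ratio to experiment-wide average response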
Description: (§2) All variants were tested in parallel on each occasion to control for transfection efficiency differences between experiments.

[3] = test system: wild-type and variant SNAP-GIPR; assay: Single-concentration GIP cAMP response by HTRF in INS-1 cells; settings: Fig S3E, mean
Description: as §2

[4] = test system: wild-type and variant SNAP-GIPR; assay: cADDis cAMP imaging in AD293 cells, ensemble, expression-matched and per decile; settings: Fig S3F, cADDis, mean;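 also: Ensemble cells as % of IBMX/FSK response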
In short: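 AD293 cells reverse-transfected with wild-type or variant SNAP-GIPR plus cADDis Green Up sensor, variants run in parallel. After 24 h, surface receptor labelled with SNAP-Surface Alexa Fluor 647 (500 nM); single-cell cADDis fluorescence imaged at 37 °C in KRBH, 6 mM glucose, 0.1% BSA. Responses given ensemble, expression-matched by wild-type deciles, or per own decile.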

[5] = test system: wild-type and variant SNAP-GIPR; assay: Constitutive and agonist-mediated internalization, reversible SNAP-tag labelling, AD293 cells; design: key to Internalisation, Vehicle / Internalisation, +GIP / Internalisation, GIP-only: % internalization: residual fluorescence after Mesna vs pre-Mesna; Surface expression: unit not given here; settings: Mean; for +GIP internalisation (100 nM) / GIP-specific internalisation (100 nM) / Constitutive internalisation (100 nM) / Surface expression: Fig 4E; for +GIP internalisation (100 nM) / GIP-specific internalisation (100 nM): GIP 100 nM; for Internalisation, +GIP / Internalisation, GIP-only / Internalisation, Vehicle: Fig S4C, AD293
In short: (§3)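 Percentage internalization calculated as specific SNAP fluorescence remaining after 10 min Mesna exposure, relative to pre-Mesna signal, imaged in TNE buffer (pH 8.6).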

[6] = test system: wild-type and variant SNAP-GIPR; assay: Surface SNAP-GIPR expression (SNAP-tag labelling) in AD293 cells; settings: for AD293 Surface: Fig S3E, mean; for Surface SNAP-GIPR expression: sheet Fig 1C;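 as to all read-outs here: scaled to the experimental average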
In short: as §1

[7] = test system: wild-type and variant SNAP-GIPR; assay: Constitutive and agonist-mediated internalization, reversible SNAP-tag labelling, INS-1 cells; design: key to Internalisation, GIP-only / Internalisation, Vehicle / Internalisation, +GIP: % internalization: residual fluorescence after Mesna vs pre-Mesna; settings: Mean; for +GIP internalisation (100 nM) / GIP-specific internalisation (100 nM) / Constitutive internalisation (100 nM): Fig 4G; for +GIP internalisation (100 nM) / GIP-specific internalisation (100 nM): GIP 100 nM; for Internalisation, +GIP / Internalisation, GIP-only / Internalisation, Vehicle: Fig S4C, INS-1
In short: as §3

[8] = column repeated, paired with cAMP 100 nM

B1: R341P (protein, UniProt P48546 22-466, looked up, variant R341P)
Gastric inhibitory …: RAETGSKGQTAGELYQRWERYRRECQETLAAAEPPSGLACNGSFDMYVCWDYAAPNATARASCPWYLPWHHHVAAGFVLRQCGSDGQWGLWRDHTQCENPEKNEAFLDQRLILERLQVMYTVGYSLSLATLLLALLILSLFRRLHCTRNYIHINLFTSFMLRAAAILSRDRLLPRPGPYLGDQALALWNQALAACRTAQIVTQYCVGANYTWLLVEGVYLHSLLVLVGGSEEGHFRYYLLLGWGAPALFVIPWVIVRYLYENTQCWERNEVKAIWWIIRTPILMTILINFLIFIRILGILLSKLRTRQMRCRDYRLRLAPSTLTLVPLLGVHEVVFAPVTEEQARGALRFAKLGFEIFLSSFQGFLVSVLYCFINKEVQSEIRRGWHHCRLRRSLGEEQRQLPERAFRALPSGSGPGEVPTSRGLSSGTLPGPGNEASRELESYC
Surface expression [1]: 0.2942
AD293 100 pM HTRF [2]: 0.001435
AD293 100 nM HTRF [2]: 0.1915
INS-1 cAMP (100 nM) [3]: -0.2249
AD293 100 pM cADDis [4]: 0.6137
AD293 100 nM cADDis [4]: 9.179
+GIP internalisation (100 nM) [5]: 0.1278
GIP-specific internalisation (100 nM) [5]: 0.02136
Constitutive internalisation (100 nM) [5]: 0.1065
Surface expression [5]: 0.1733
Internalisation, +GIP [5]: 72.1567
Internalisation, GIP-only [5]: 15.7264
Internalisation, Vehicle [5]: 56.4303
AD293 Surface [6, 8]: 0.2494
AD293 Surface ([6]; paired with cAMP 100 pM): 0.2494
Surface SNAP-GIPR expression ([6]; replicate 1): 0.3004
Surface SNAP-GIPR expression ([6]; replicate 2): 0.416
Surface SNAP-GIPR expression ([6]; replicate 3): 0.1222
Surface SNAP-GIPR expression ([6]; replicate 4): 0.3179
Surface SNAP-GIPR expression ([6]; replicate 5): 0.375
Surface SNAP-GIPR expression ([6]; replicate 6): 0.2191
Surface SNAP-GIPR expression ([6]; replicate 7): 0.3629
Surface SNAP-GIPR expression ([6]; replicate 8): 0.2975
Surface SNAP-GIPR expression ([6]; replicate 9): 0.196
Surface SNAP-GIPR expression ([6]; replicate 10): 0.2642
Surface SNAP-GIPR expression ([6]; replicate 11): 0.31
Surface SNAP-GIPR expression ([6]; replicate 12): 0.2856
Surface SNAP-GIPR expression ([6]; replicate 13): 0.6221
Surface SNAP-GIPR expression ([6]; replicate 14): 0.2061
Surface SNAP-GIPR expression ([6]; replicate 15): 0.2357
Surface SNAP-GIPR expression ([6]; replicate 16): 0.2383
Surface SNAP-GIPR expression ([6]; replicate 17): 0.211
Surface SNAP-GIPR expression ([6]; replicate 18): 0.144
Surface SNAP-GIPR expression ([6]; replicate 19): 0.3559
Surface SNAP-GIPR expression ([6]; replicate 20): 0.2316
Surface SNAP-GIPR expression ([6]; replicate 21): 0.2368
Surface SNAP-GIPR expression ([6]; replicate 22): 0.1783
Surface SNAP-GIPR expression ([6]; replicate 23): 0.2272
Surface SNAP-GIPR expression ([6]; replicate 24): 0.2138
Surface SNAP-GIPR expression ([6]; replicate 25): 0.2383
Surface SNAP-GIPR expression ([6]; replicate 26): 0.2262
Surface SNAP-GIPR expression ([6]; replicate 27): 0.2274
Surface SNAP-GIPR expression ([6]; replicate 28): 0.2002
Surface SNAP-GIPR expression ([6]; replicate 29): 0.197
Surface SNAP-GIPR expression ([6]; replicate 30): 0.3017
Surface SNAP-GIPR expression ([6]; replicate 31): 0.1334
Surface SNAP-GIPR expression ([6]; replicate 32): 0.2186
Surface SNAP-GIPR expression ([6]; replicate 33): 0.2522
Surface SNAP-GIPR expression ([6]; replicate 34): 0.2282
Surface SNAP-GIPR expression ([6]; replicate 35): 0.2532
Surface SNAP-GIPR expression ([6]; replicate 36): 0.1015
Surface SNAP-GIPR expression ([6]; replicate 37): 0.1446
Surface SNAP-GIPR expression ([6]; replicate 38): 0.2212
Surface SNAP-GIPR expression ([6]; replicate 39): 0.2317
Surface SNAP-GIPR expression ([6]; replicate 40): 0.2075
Surface SNAP-GIPR expression ([6]; replicate 41): 0.2741
+GIP internalisation (100 nM) [7]: 0.1423
GIP-specific internalisation (100 nM) [7]: 0.02008
Constitutive internalisation (100 nM) [7]: 0.1222
Internalisation, +GIP [7]: 48.645
Internalisation, GIP-only [7]: 6.527
Internalisation, Vehicle [7]: 42.1183

B2: R136W (protein, UniProt P48546 22-466, looked up, variant R136W)
Gastric inhibitory …: B1 Gastric inhibitory … with R115W, P320R
Surface expression [1]: 1.406
AD293 100 pM HTRF [2]: 0.0806
AD293 100 nM HTRF [2]: 1.324
INS-1 cAMP (100 nM) [3]: 1.164
AD293 100 pM cADDis [4]: 19.5296
AD293 100 nM cADDis [4]: 38.38
+GIP internalisation (100 nM) [5]: 0.7747
GIP-specific internalisation (100 nM) [5]: 0.1529
Constitutive internalisation (100 nM) [5]: 0.6218
Surface expression [5]: 1.49
Internalisation, +GIP [5]: 52.0458
Internalisation, GIP-only [5]: 10.2879
Internalisation, Vehicle [5]: 41.7579
AD293 Surface [6, 8]: 1.539
AD293 Surface ([6]; paired with cAMP 100 pM): 1.539
Surface SNAP-GIPR expression ([6]; replicate 1): 1.301
Surface SNAP-GIPR expression ([6]; replicate 2): 1.896
Surface SNAP-GIPR expression ([6]; replicate 3): 1.558
Surface SNAP-GIPR expression ([6]; replicate 4): 1.426
Surface SNAP-GIPR expression ([6]; replicate 5): 1.728
Surface SNAP-GIPR expression ([6]; replicate 6): 1.162
Surface SNAP-GIPR expression ([6]; replicate 7): 1.369
Surface SNAP-GIPR expression ([6]; replicate 8): 1.722
Surface SNAP-GIPR expression ([6]; replicate 9): 1.795
Surface SNAP-GIPR expression ([6]; replicate 10): 1.62
Surface SNAP-GIPR expression ([6]; replicate 11): 1.44
Surface SNAP-GIPR expression ([6]; replicate 12): 1.625
Surface SNAP-GIPR expression ([6]; replicate 13): 1.681
Surface SNAP-GIPR expression ([6]; replicate 14): 1.394
Surface SNAP-GIPR expression ([6]; replicate 15): 1.54
Surface SNAP-GIPR expression ([6]; replicate 16): 1.63
Surface SNAP-GIPR expression ([6]; replicate 17): 1.488
Surface SNAP-GIPR expression ([6]; replicate 18): 1.722
Surface SNAP-GIPR expression ([6]; replicate 19): 2.073
Surface SNAP-GIPR expression ([6]; replicate 20): 1.443
Surface SNAP-GIPR expression ([6]; replicate 21): 1.607
Surface SNAP-GIPR expression ([6]; replicate 22): 1.548
Surface SNAP-GIPR expression ([6]; replicate 23): 1.562
Surface SNAP-GIPR expression ([6]; replicate 24): 1.636
Surface SNAP-GIPR expression ([6]; replicate 25): 1.259
Surface SNAP-GIPR expression ([6]; replicate 26): 1.57
Surface SNAP-GIPR expression ([6]; replicate 27): 1.295
Surface SNAP-GIPR expression ([6]; replicate 28): 1.198
Surface SNAP-GIPR expression ([6]; replicate 29): 1.582
Surface SNAP-GIPR expression ([6]; replicate 30): 1.517
Surface SNAP-GIPR expression ([6]; replicate 31): 1.447
Surface SNAP-GIPR expression ([6]; replicate 32): 1.457
Surface SNAP-GIPR expression ([6]; replicate 33): 1.855
Surface SNAP-GIPR expression ([6]; replicate 34): 1.376
Surface SNAP-GIPR expression ([6]; replicate 35): 1.615
Surface SNAP-GIPR expression ([6]; replicate 36): 1.418
Surface SNAP-GIPR expression ([6]; replicate 37): 1.346
Surface SNAP-GIPR expression ([6]; replicate 38): 1.685
Surface SNAP-GIPR expression ([6]; replicate 39): 1.551
Surface SNAP-GIPR expression ([6]; replicate 40): 1.483
Surface SNAP-GIPR expression ([6]; replicate 41): 1.492
+GIP internalisation (100 nM) [7]: 0.6838
GIP-specific internalisation (100 nM) [7]: 0.1408
Constitutive internalisation (100 nM) [7]: 0.543
Internalisation, +GIP [7]: 46.5117
Internalisation, GIP-only [7]: 9.467
Internalisation, Vehicle [7]: 37.045

Reference: article PMC13544220, “Glycemic and bodyweight effects of GIPR coding variation reflect differences in surface expression and intrinsic functional impairment” (Science Advances, 2026)
